Results published in patent US20220281990A1 (MERRIMACK PHARMACEUTICALS, published 2022).

Assays:
[1] = biological target: T1, Human TNFR2 expressed on cells (CHO-hTNFR2 cells) (human, UniProt P20333 23-461); assay: flow cytometry, titration of soluble scFv (up to 300 nM) on CHO-hTNFR2 cells; one site binding non-linear fit
T1 construct: also called CHO cells overexpressing human TNFR2; human TNFR2 reporter cells (HEK293)
T1 sequence: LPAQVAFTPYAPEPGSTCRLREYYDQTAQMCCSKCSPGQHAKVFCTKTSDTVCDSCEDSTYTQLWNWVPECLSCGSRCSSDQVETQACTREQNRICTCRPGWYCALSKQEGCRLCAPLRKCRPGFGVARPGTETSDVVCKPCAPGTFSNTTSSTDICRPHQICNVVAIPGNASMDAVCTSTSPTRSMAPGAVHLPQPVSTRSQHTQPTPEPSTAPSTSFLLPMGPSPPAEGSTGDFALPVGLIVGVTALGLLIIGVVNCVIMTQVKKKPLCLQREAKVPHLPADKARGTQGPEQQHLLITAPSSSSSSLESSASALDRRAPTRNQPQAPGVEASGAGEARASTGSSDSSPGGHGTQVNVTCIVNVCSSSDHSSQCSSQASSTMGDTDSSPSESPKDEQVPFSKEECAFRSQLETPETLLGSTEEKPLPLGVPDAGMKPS

[2] = biological target: T1, Human TNFR2 expressed on cells …; assay: flow cytometry; soluble scFv inhibiting TNF (1 nM) binding to CHO-hTNFR2 cells (FIG. 3)
[3] = biological target: T2, recombinant human TNFR2-hFc protein (human, UniProt P20333 23-257); assay: flow cytometry; hTNFR2-Fc binding to scFv displayed on yeast; one site binding fit (FIG. 4)
T2 construct: also called hTNFR2-Fc; human TNFR2-Fc; not shown: human Fc
T2 sequence: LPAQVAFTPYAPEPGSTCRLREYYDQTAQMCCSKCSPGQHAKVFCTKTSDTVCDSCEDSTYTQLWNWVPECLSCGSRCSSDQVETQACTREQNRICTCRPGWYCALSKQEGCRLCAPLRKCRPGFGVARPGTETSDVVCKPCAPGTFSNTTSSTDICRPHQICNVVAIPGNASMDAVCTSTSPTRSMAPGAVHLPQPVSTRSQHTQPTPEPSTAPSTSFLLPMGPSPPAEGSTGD

[4] = biological target: T1, Human TNFR2 expressed on cells …; assay: flow cytometry; soluble scFv inhibiting TNF (1 nM) binding to CHO-hTNFR2 cells (FIGS. 5A-5B)
[5] = biological target: T2, recombinant human TNFR2-hFc protein; assay: flow cytometry; TNFR2-Fc binding to scFv displayed on yeast (FIGS. 6A-6C)
[6] = biological target: T2, recombinant human TNFR2-hFc protein; assay: flow cytometry; hTNFR2-Fc binding to scFv displayed on yeast; one site binding fit (FIG. 6B)
[7] = biological target: T2, recombinant human TNFR2-hFc protein; assay: flow cytometry; hTNFR2-Fc binding to scFv displayed on yeast; one site binding fit (FIG. 6C)
[8] = biological target: T2, recombinant human TNFR2-hFc protein; assay: flow cytometry; hTNFR2-Fc binding to scFv displayed on yeast; one site binding fit (FIG. 6A)

B1: UC7 (9-1B5) scFv (scFv)
scFv: QVQLVQSGAEVKKPGSSVKVSCKASGDTFSSYGVSWVRQAPGQGLEWMGRIVPVFGIANYAQKFQGRVTITADESTSTAYMELSSLRSEDTAVYYCARQSPYVTYSSYYFDYWGQGTLVTVSSASSGGSTSGSGKPGSGEGSSGSAREIVLTQSPGTLSLSPGERATLSCRASQSVSNNFLAWYQQKPGQAPRLLIYDASTRATGIPDRFSGSGSGTDFTLTISRLEPEDFAVYYCQQYGSWPITFGQGTKVEIKR
notes: Soluble scFv
B1 gave a Kd [1] of 48.9 nM and an IC50 [2] of 25.6 nM.

B2: UC2 (S4-2 1D10) scFv (scFv)
scFv: QVQLLESGGGLVQPGGSLRLSCAASGFTFSTYAMSWVRQAPGKGLEWVSIISDGGDATFYADSVKGRFTISRDNSKNTLYLQMNSLRAEDTAVYYCARDGTSAAAFDSWGQGTLVTVSSASSGGSTSGSGKPGSGEGSSGSARDIQMTQSPSSLSASVGDRVTITCQASQDITNFLNWYQQKPGKAPKLLIYDASTLQTGVPSRFSGSGSGTDFTFTISSLQPEDIATYYCQQSDSYPITFGQGTKVEIKR
For B2, the Kd [3] was 42.8 nM, the Kd [1] was 14.4 nM and the IC50 [4] was 39.6 nM.

B3: UC2.3.10 (S4-2 1D10-1G9-1G2) scFv (scFv)
scFv: QVQLLESGGGLVQPGGSLRLSYAASGFTFSTYAMSWIRQAPGKGLEWVSIISDGGDATVYADSVKGRFTISRDNSKNTLYLQMNSLRAEDTAVYYCARDRTSAAAFDSWGQGTLVTVSSASSGGSTSGSGKPGSGEGSSGSARDIQMTQSPSSLSASVGDRVTITCQASQDITNFLNWYQQKPGKAPKLLIYDASTLQTGVPSRFSGSGSGTDFTFTISSLQPEDIATYYCQQSDSYPITFGQGTKVEIKR
For B3, the “fold higher affinity (vs parental scFv)” value [5] was 10 fold and the Kd [6] was 0.63 nM.

B4: UC2.3.9 (S4-2 1D10-1G9-1F12) scFv (scFv)
scFv: QVQLLESGGGLVQPGGSLRLSCAASGFTFSTYAMSWIRQAPGKGLEWVSIISDGGDATVYADSVKGRFTISRDNNRNTLYLQMNSLRAEDTAVYYCARDGTSAAAFDSWGQGTLVTVSSASSGGSTSGSGKPGSGEGSSGSARDIQMTQSPSSLSASVGDRVTITCHASQDITNFLNWYQQKPGKAPKLLIYDASTLQTGVPSRFSGSGSGTDFTFTISSLQPEDIATYYCQQSDSYPITFGQGTKVEIKR
B4 was tested, and the “fold higher affinity (vs parental scFv)” value [5] was 10 fold and the Kd [6] was 1.79 nM.

B5: UC2.3.11 (S4-2 1D10-1G9-1G3) scFv (scFv)
scFv: QVQLLESGGGLVQPGGSLRLSCAVSGFTFSTYAMSWIRQAPGKGLEWVSIISDGGDATVYADSVKGRFTISRDNSKNTLYLQMNSLRAEDTAVYYWARDGTSAAAFDSWGQGTLVTVSSANSGGSTSGSGKPGSGEGSSGSARDIQMTQSPSSLSASVGDRVTITCQASQDITNFLNWYQQKPGKAPKLLIYDASTLQTGVPSRFSGSGSGTDFTFTISSLQPEDIATYYCQQSDSYPITFGQGTKVEIKR
With B5 the “fold higher affinity (vs parental scFv)” value [5] was 10 fold and the Kd [6] was 1.52 nM.

B6: UC2.3.13 (S4-2 1D10-1G9-1G11) scFv (scFv)
scFv: QVQLLESVGGLVQPGGSLRLSCAVSGFTFSTYAMSWIRQAPGKGLEWVSIISDGGDVTVYADSVKGRFTISRDNSKNTLYLQMNSLRAEDTAVYYCARDRTSAAAFDSWGQGTLVSDSSASSGGSTSGSGKPGSGEGSSGSSRDIQMTQSPSSLSASVGDRVTITCQASQDITNFLNWYQQKPGKAPKLLIYDASTLQTGVPSRFSGSGSGTDFNFTISSLQPEDIATYYCQQSDSYPITFGQGTKVEIKR
B6 was tested, and the “fold higher affinity (vs parental scFv)” value [5] was 10 fold and the Kd [7] was 0.87 nM.

B7: UC2.3.14 (S4-2 1D10-1G9-1H11) scFv (scFv)
scFv: QVQLLESGGGLVQPGGSLRLSYAASGFTFSTYAMSWIRQAPRKGLEWVSIISDGGDATVYADSVKGRFTISRDNSKNTLYLQMNSLRAEDTAVYYCARDRTSAAAFDSWGQGTLVTVSSASSGGSTSGSGKPGSGEGSSGSARDIQMTQSPSSLSASVGDRVTITCQASQDITNFLNWYQQKPGKAPKLLIYDASTLQTGVPSRFSGSGSGTDFTFTISSLQPEDIATYYCQQSDSYPITFGQGTKVEIKR
With B7 the “fold higher affinity (vs parental scFv)” value [5] was 10 fold and the Kd [7] was 0.65 nM.

B8: UC2.3.12 (S4-2 1D10-1G9-1H1) scFv (scFv)
scFv: QVQLLESGGGLVQPGDSLRLSCAASGFTFSTYAMSWIRQAPGKGLEWVSIISDGGDATVYADSVKGRFTISRDNNRNTLYLQMNSLRAEDTAVYYCARDGTSAAAFDSWGQGTLVTVSSASSGGSTSGSGKPGSGEGSSGSARDIQMTQSPSSLSASVGDRVTITCQASQDITNFLNWYQQKPGKAPKLLIYDASTLQTGVPSRFSGSGSGTNFTFTISSLQPEDIATYYCQQSDSYPITFGQGTKVEIKR
For B8, the “fold higher affinity (vs parental scFv)” value [5] was 10 fold and the Kd [6] was 1.98 nM.

B9: UC5 (8-2A10) scFv (scFv)
scFv: QVQLLESGGGLVQPGGSLRLSCAASGFTFNTYAMTWVRQAPGKGLEWVSAISDSGGDTFYADSVKGRFTISRDNSKNTLYLQMNSLRAEDTAVYYCARDGTYAARFDYWGQGTLVTVSSASSGGSTSGSGKPGSGEGSSGSARDIQMTQSPSSLSASVGDRVTITCQASQDISNYLNWYQQKPGKAPKLLIYDASTLETGVPSRFSGSGSGTDFTFTISSLQPEDIATYYCQQSDSFPITFGQGTKVEIKR
notes: Soluble scFv
With B9 the Kd [1] was 14.5 nM and the IC50 [2] was 746 nM.

B10: UC1 (S4-2 1B5) scFv (scFv)
scFv: QVQLLESGGGLVQPGGSLRLSCAASGFSFTSYAMTWVRQAPGKGLEWVSGISGGGAATFYADSVKGRFTISRDNSKNTLYLQMNSLRAEDTAVYYCARQSQYVGGFDYWGQGTLVTVSSASSGGSTSGSGKPGSGEGSSGSARQSVLTQPPSVSGAPGQRVTISCTGSSSNIGAGYGVHWYQQLPGTAPKLLIYGNTNRPSGVPDRFSGFKSGTSASLAITGLQAEDEADYYCQSYDSSLSGWVFGGGTKLTVLG
Binder B10 has a Kd [3] of 18.1 nM, a Kd [1] of 8.17 nM and an IC50 [4] of 4.44 nM.

B11: UC1.3 (S4-2 1B5-1B3) scFv (scFv)
scFv: QVQLLESGGGLVQPGGSLRLSCAASGFSFTSYAMTWVRQAPGKGLEWVSGISGDGAATFYADSVKGRFTISRDNSKNTLYLQMNSLRAEDTAVYYCARQSQYVGGFDYWGQGTLVTVSSASSGGSTSGSGKPDSGEGSSGSARQSVLTQPPSVSGAPGQRVTISCTGSSSNFGAGYGVHWYQQLPGTAPKLLIHGNTNRPSGVPDRFSGFKSGTSASLAITGLQAEDEADYYCQSYDSSLSGWVFGGGTKLTVLG
In the case of B11, the “fold higher affinity (vs parental scFv)” value [5] is reported as 10 fold and the Kd [8] is reported as 0.64 nM.

B12: UC1.2 (S4-2 1B5-1A5) scFv (scFv)
scFv: QVQLLESGGGLVQPGGSLRLSCAASGFSFTSYAMTWVRQAPGKGLEWVSGISGGGAATFYADSVKGRFTISRDNSKNTLYLQMNSLRAEDTAVYYCARQSQYVGGFDYWGQGTLVTVSSASSGGSTSGSGKPDSGEGSSGSARQSVLTQPPSVSGAPGQRVTISCTGSSSNFGAGYGVHWYQQLPGTAPKLLIHGNTNRPSGVPDRFSGFKSGTSASLAITGLQAEDEADYYCQSYDSSLSGWVFGGGTKLTVLG
In the case of B12, the “fold higher affinity (vs parental scFv)” value [5] is reported as 10 fold and the Kd [8] is reported as 0.57 nM.

B13: UC 8 (9-2A4) scFv (scFv)
scFv: QVQLVQSGAEVKKPGSSVKVSCKASGDTFSNYGFSWVRQAPGQGLEWMGGIVPVFGIATYAQKFQGRVTITADESTSTAYMELSSLRSEDTAVYYCARDYSYYPDDPRYFEYWGQGTLVTVSSASSGGSTSGSGKPGSGEGSSGSAREIVLTQSPGTLSLSPGERATLSCRASQSVSSTFLAWYQQKPGQAPRLLIYAASSRATGIPDRFSGSGSGTDFTLTISRLEPEDFAVYYCQQYGSWPLTFGQGTKVEIKR
notes: Soluble scFv
Work on B13 yielded a Kd [1] of 13.4 nM and an IC50 [2] of 21.5 nM.

B14: UC6 (9-1A6) scFv (scFv)
scFv: QVQLVQSGAEVKKPGSSVKVSCKASGDSFNNFGISWVRQAPGQGLEWMGGIVPVLGIATYAQKFQGRVTITADESTSTAYMELSSLRSEDTAVYYCARGSAWYDGSFQYWGQGTLVTVSSASSGGSTSGSGKPGSGEGSSGSAREIVLTQSPGTLSLSPGERATLSCRASQSVSSTFLAWYQQKPGQAPRLLIYDASTRATGIPDRFSGSDSGTDFTLTISRLEPEDFAVYYCQQYDSWPFTFGQGTKVEIKR
notes: Soluble scFv
B14 was tested, and the Kd [1] was 42 nM and the IC50 [2] was 69.7 nM.

B15: UC3 (S4-2 1E5) scFv (scFv)
scFv: QVQLLESGGGLVQPGGSLRLSCAASGFSFSSYAMSWVRQAPGKGLEWVSGISAGGGETFYADSVKGRFTISRDNSKNTLYLQMNSLRAEDTAVYYCARVHPISYGFDIWGQGTLVTVSSASSGGSTSGSGKPGSGEGSSGSARDIQMTQSPSSLSASVGDRVTITCQASQDIKKYLNWYQQKPGKAPKLLIYDASTLQTGVPSRFSGSGSGTDFTFTISSLQPEDIATYYCQQSDNTPVTFGQGTKVEIKR
notes: Soluble scFv
B15 showed a Kd [1] of 19.3 nM and an IC50 [2] of 110 nM.
